# Target: T1, human C5 (human, UniProt P01031 19-673; P01031 678-1676, Beta and alpha chains are disulfide-linked and the protein is glycosylated.)
# T1 construct: Either in-house recombinant C5 or plasma derived C5 (CALBIOCHEM) was used; also called recombinant human C5; plasma derived human C5
# Test: Biacore, captured antibody, pH 7.4, 37 C;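 also: biacore binding response of anti-C5 antibody light chain variants captured on chip with human C5 injected, ACES running buffer containing 1.2 mM CaCl₂, parent light chain antibody set to 100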
# Experimental: The light chain variants were tested for the binding affinity to C5 at pH 7.4 and at 37 degrees C. using Biacore T200 instrument (GE Healthcare) or Biacore 4000 instrument (GE Healthcare). […] Anti-C5 antibodies were captured on an immobilized molecule, and then human C5 was injected. The running buffer used was pH 7.4 ACES Buffer containing 1.2 mM Ca (20 mM ACES, 150 mM NaCl, 1.2 mM CaCl₂, 0.05% Tween 20). A value, % binding, was determined by normalizing binding response with that of antibody comprising parent light chain as 100.
row,Binder,% binding (parent = 100) [%]
1,"CFP0015 15L 30Y (antibody, V domains shown) VH: QVQLLESGGGLVQPGGSLRLSCAASGFTFSSYAMSWVRQAPGKGLEWVSAISGSGGSTYYADSVKGRFTISRDNSKNTLYLQMNSLRAEDTAVYYCARGDQIWYDQWYYFDMWGQGTLVTVSS VL: DIQMTQSPSSLSASVGDRVTITCRASQSIYDDLAWYQQKPGKAPKLLIYEASNLQSGVPSRFSGSGSGTDFTLTISSLQPEDFATYYCQQYDSSPLTFGQGTKVEIK",51.3
2,"CFP0015 15L 50H (antibody, V domains shown) VH: QVQLLESGGGLVQPGGSLRLSCAASGFTFSSYAMSWVRQAPGKGLEWVSAISGSGGSTYYADSVKGRFTISRDNSKNTLYLQMNSLRAEDTAVYYCARGDQIWYDQWYYFDMWGQGTLVTVSS VL: DIQMTQSPSSLSASVGDRVTITCRASQSIEDDLAWYQQKPGKAPKLLIYHASNLQSGVPSRFSGSGSGTDFTLTISSLQPEDFATYYCQQYDSSPLTFGQGTKVEIK",8.8
3,"CFP0015 15L 32Y (antibody, V domains shown) VH: QVQLLESGGGLVQPGGSLRLSCAASGFTFSSYAMSWVRQAPGKGLEWVSAISGSGGSTYYADSVKGRFTISRDNSKNTLYLQMNSLRAEDTAVYYCARGDQIWYDQWYYFDMWGQGTLVTVSS VL: DIQMTQSPSSLSASVGDRVTITCRASQSIEDYLAWYQQKPGKAPKLLIYEASNLQSGVPSRFSGSGSGTDFTLTISSLQPEDFATYYCQQYDSSPLTFGQGTKVEIK",15.1
4,"CFP0015 15L 31S (antibody, V domains shown) VH: QVQLLESGGGLVQPGGSLRLSCAASGFTFSSYAMSWVRQAPGKGLEWVSAISGSGGSTYYADSVKGRFTISRDNSKNTLYLQMNSLRAEDTAVYYCARGDQIWYDQWYYFDMWGQGTLVTVSS VL: DIQMTQSPSSLSASVGDRVTITCRASQSIESDLAWYQQKPGKAPKLLIYEASNLQSGVPSRFSGSGSGTDFTLTISSLQPEDFATYYCQQYDSSPLTFGQGTKVEIK",36.5
5,"CFP0015 15L 32E (antibody, V domains shown) VH: QVQLLESGGGLVQPGGSLRLSCAASGFTFSSYAMSWVRQAPGKGLEWVSAISGSGGSTYYADSVKGRFTISRDNSKNTLYLQMNSLRAEDTAVYYCARGDQIWYDQWYYFDMWGQGTLVTVSS VL: DIQMTQSPSSLSASVGDRVTITCRASQSIEDELAWYQQKPGKAPKLLIYEASNLQSGVPSRFSGSGSGTDFTLTISSLQPEDFATYYCQQYDSSPLTFGQGTKVEIK",87.3
6,"CFP0015 15L 32Q (antibody, V domains shown) VH: QVQLLESGGGLVQPGGSLRLSCAASGFTFSSYAMSWVRQAPGKGLEWVSAISGSGGSTYYADSVKGRFTISRDNSKNTLYLQMNSLRAEDTAVYYCARGDQIWYDQWYYFDMWGQGTLVTVSS VL: DIQMTQSPSSLSASVGDRVTITCRASQSIEDQLAWYQQKPGKAPKLLIYEASNLQSGVPSRFSGSGSGTDFTLTISSLQPEDFATYYCQQYDSSPLTFGQGTKVEIK",328
7,"CFP0015 15L 32T (antibody, V domains shown) VH: QVQLLESGGGLVQPGGSLRLSCAASGFTFSSYAMSWVRQAPGKGLEWVSAISGSGGSTYYADSVKGRFTISRDNSKNTLYLQMNSLRAEDTAVYYCARGDQIWYDQWYYFDMWGQGTLVTVSS VL: DIQMTQSPSSLSASVGDRVTITCRASQSIEDTLAWYQQKPGKAPKLLIYEASNLQSGVPSRFSGSGSGTDFTLTISSLQPEDFATYYCQQYDSSPLTFGQGTKVEIK",78.1
8,"CFP0015 15L 32H (antibody, V domains shown) VH: QVQLLESGGGLVQPGGSLRLSCAASGFTFSSYAMSWVRQAPGKGLEWVSAISGSGGSTYYADSVKGRFTISRDNSKNTLYLQMNSLRAEDTAVYYCARGDQIWYDQWYYFDMWGQGTLVTVSS VL: DIQMTQSPSSLSASVGDRVTITCRASQSIEDHLAWYQQKPGKAPKLLIYEASNLQSGVPSRFSGSGSGTDFTLTISSLQPEDFATYYCQQYDSSPLTFGQGTKVEIK",0.8
9,"CFP0015 15L 34N (antibody, V domains shown) VH: QVQLLESGGGLVQPGGSLRLSCAASGFTFSSYAMSWVRQAPGKGLEWVSAISGSGGSTYYADSVKGRFTISRDNSKNTLYLQMNSLRAEDTAVYYCARGDQIWYDQWYYFDMWGQGTLVTVSS VL: DIQMTQSPSSLSASVGDRVTITCRASQSIEDDLNWYQQKPGKAPKLLIYEASNLQSGVPSRFSGSGSGTDFTLTISSLQPEDFATYYCQQYDSSPLTFGQGTKVEIK",100
10,"CFP0015 15L 50A (antibody, V domains shown) VH: QVQLLESGGGLVQPGGSLRLSCAASGFTFSSYAMSWVRQAPGKGLEWVSAISGSGGSTYYADSVKGRFTISRDNSKNTLYLQMNSLRAEDTAVYYCARGDQIWYDQWYYFDMWGQGTLVTVSS VL: DIQMTQSPSSLSASVGDRVTITCRASQSIEDDLAWYQQKPGKAPKLLIYAASNLQSGVPSRFSGSGSGTDFTLTISSLQPEDFATYYCQQYDSSPLTFGQGTKVEIK",44.2
11,"CFP0015 15L 31Y (antibody, V domains shown) VH: QVQLLESGGGLVQPGGSLRLSCAASGFTFSSYAMSWVRQAPGKGLEWVSAISGSGGSTYYADSVKGRFTISRDNSKNTLYLQMNSLRAEDTAVYYCARGDQIWYDQWYYFDMWGQGTLVTVSS VL: DIQMTQSPSSLSASVGDRVTITCRASQSIEYDLAWYQQKPGKAPKLLIYEASNLQSGVPSRFSGSGSGTDFTLTISSLQPEDFATYYCQQYDSSPLTFGQGTKVEIK",102
12,"CFP0015 15L 50D (antibody, V domains shown) VH: QVQLLESGGGLVQPGGSLRLSCAASGFTFSSYAMSWVRQAPGKGLEWVSAISGSGGSTYYADSVKGRFTISRDNSKNTLYLQMNSLRAEDTAVYYCARGDQIWYDQWYYFDMWGQGTLVTVSS VL: DIQMTQSPSSLSASVGDRVTITCRASQSIEDDLAWYQQKPGKAPKLLIYDASNLQSGVPSRFSGSGSGTDFTLTISSLQPEDFATYYCQQYDSSPLTFGQGTKVEIK",131
13,"CFP0015 15L 31Q (antibody, V domains shown) VH: QVQLLESGGGLVQPGGSLRLSCAASGFTFSSYAMSWVRQAPGKGLEWVSAISGSGGSTYYADSVKGRFTISRDNSKNTLYLQMNSLRAEDTAVYYCARGDQIWYDQWYYFDMWGQGTLVTVSS VL: DIQMTQSPSSLSASVGDRVTITCRASQSIEQDLAWYQQKPGKAPKLLIYEASNLQSGVPSRFSGSGSGTDFTLTISSLQPEDFATYYCQQYDSSPLTFGQGTKVEIK",25.8
14,"CFP0015 15L 31E (antibody, V domains shown) VH: QVQLLESGGGLVQPGGSLRLSCAASGFTFSSYAMSWVRQAPGKGLEWVSAISGSGGSTYYADSVKGRFTISRDNSKNTLYLQMNSLRAEDTAVYYCARGDQIWYDQWYYFDMWGQGTLVTVSS VL: DIQMTQSPSSLSASVGDRVTITCRASQSIEEDLAWYQQKPGKAPKLLIYEASNLQSGVPSRFSGSGSGTDFTLTISSLQPEDFATYYCQQYDSSPLTFGQGTKVEIK",22.4
15,"CFP0015 15L 32S (antibody, V domains shown) VH: QVQLLESGGGLVQPGGSLRLSCAASGFTFSSYAMSWVRQAPGKGLEWVSAISGSGGSTYYADSVKGRFTISRDNSKNTLYLQMNSLRAEDTAVYYCARGDQIWYDQWYYFDMWGQGTLVTVSS VL: DIQMTQSPSSLSASVGDRVTITCRASQSIEDSLAWYQQKPGKAPKLLIYEASNLQSGVPSRFSGSGSGTDFTLTISSLQPEDFATYYCQQYDSSPLTFGQGTKVEIK",167
16,"CFP0015 15L 32N (antibody, V domains shown) VH: QVQLLESGGGLVQPGGSLRLSCAASGFTFSSYAMSWVRQAPGKGLEWVSAISGSGGSTYYADSVKGRFTISRDNSKNTLYLQMNSLRAEDTAVYYCARGDQIWYDQWYYFDMWGQGTLVTVSS VL: DIQMTQSPSSLSASVGDRVTITCRASQSIEDNLAWYQQKPGKAPKLLIYEASNLQSGVPSRFSGSGSGTDFTLTISSLQPEDFATYYCQQYDSSPLTFGQGTKVEIK",10.9
17,"CFP0015 15L 31H (antibody, V domains shown) VH: QVQLLESGGGLVQPGGSLRLSCAASGFTFSSYAMSWVRQAPGKGLEWVSAISGSGGSTYYADSVKGRFTISRDNSKNTLYLQMNSLRAEDTAVYYCARGDQIWYDQWYYFDMWGQGTLVTVSS VL: DIQMTQSPSSLSASVGDRVTITCRASQSIEHDLAWYQQKPGKAPKLLIYEASNLQSGVPSRFSGSGSGTDFTLTISSLQPEDFATYYCQQYDSSPLTFGQGTKVEIK",59.4
18,"CFP0015 15L 31N (antibody, V domains shown) VH: QVQLLESGGGLVQPGGSLRLSCAASGFTFSSYAMSWVRQAPGKGLEWVSAISGSGGSTYYADSVKGRFTISRDNSKNTLYLQMNSLRAEDTAVYYCARGDQIWYDQWYYFDMWGQGTLVTVSS VL: DIQMTQSPSSLSASVGDRVTITCRASQSIENDLAWYQQKPGKAPKLLIYEASNLQSGVPSRFSGSGSGTDFTLTISSLQPEDFATYYCQQYDSSPLTFGQGTKVEIK",42.2
19,"CFP0015 15L 31T (antibody, V domains shown) VH: QVQLLESGGGLVQPGGSLRLSCAASGFTFSSYAMSWVRQAPGKGLEWVSAISGSGGSTYYADSVKGRFTISRDNSKNTLYLQMNSLRAEDTAVYYCARGDQIWYDQWYYFDMWGQGTLVTVSS VL: DIQMTQSPSSLSASVGDRVTITCRASQSIETDLAWYQQKPGKAPKLLIYEASNLQSGVPSRFSGSGSGTDFTLTISSLQPEDFATYYCQQYDSSPLTFGQGTKVEIK",15.8
20,"CFP0015 15L 31A (antibody, V domains shown) VH: QVQLLESGGGLVQPGGSLRLSCAASGFTFSSYAMSWVRQAPGKGLEWVSAISGSGGSTYYADSVKGRFTISRDNSKNTLYLQMNSLRAEDTAVYYCARGDQIWYDQWYYFDMWGQGTLVTVSS VL: DIQMTQSPSSLSASVGDRVTITCRASQSIEADLAWYQQKPGKAPKLLIYEASNLQSGVPSRFSGSGSGTDFTLTISSLQPEDFATYYCQQYDSSPLTFGQGTKVEIK",30
21,"CFP0015 15L 50Q (antibody, V domains shown) VH: QVQLLESGGGLVQPGGSLRLSCAASGFTFSSYAMSWVRQAPGKGLEWVSAISGSGGSTYYADSVKGRFTISRDNSKNTLYLQMNSLRAEDTAVYYCARGDQIWYDQWYYFDMWGQGTLVTVSS VL: DIQMTQSPSSLSASVGDRVTITCRASQSIEDDLAWYQQKPGKAPKLLIYQASNLQSGVPSRFSGSGSGTDFTLTISSLQPEDFATYYCQQYDSSPLTFGQGTKVEIK",51.8
